Article doi:10.1101/2022.03.31.486616

Target: E. cloacae Cap2 (C109A/C548A), catalytically dead (E. cloacae)
Assay: cryo-EM structure

Substance: E. cloacae Cap2 (C109A/C548A), catalytically dead (enzyme)
- stoichiometry N: 2
